Results from article PMC3446948, “Protection against Th17 Cells Differentiation by an Interleukin-23 Receptor Cytokine-Binding Homology Region” (PLoS ONE, 2012).

What was measured:
Mouse IL-23 (mouse) = Mouse IL-23 (mouse) (UniProt Q9EQ14)
Human IL-23 = molecular target: T1, Human IL-23 (human, UniProt Q9NPF7 20-189; P29460 23-328); assay: ELISA; direct binding ELISA: 10 ng/well human IL-23 coated, various concentrations of IL23R-CHR added, bound IL23R-CHR detected by HRP-labelled IL23R mAb; non-linear regression; details: both partners purified
T1 construct: Interleukin-23 subunit alpha (p19), human; subunit of the bought heterodimeric cytokine; Interleukin-12 subunit beta (p40), human; also called human IL-23 complex; source: bought: R&D
T1 sequence (looked up) 1: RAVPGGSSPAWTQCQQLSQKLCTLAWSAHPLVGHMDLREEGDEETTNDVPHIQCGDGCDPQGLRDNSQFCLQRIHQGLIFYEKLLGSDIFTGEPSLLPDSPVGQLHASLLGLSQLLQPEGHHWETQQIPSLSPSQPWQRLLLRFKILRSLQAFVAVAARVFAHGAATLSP
T1 sequence (looked up) 2: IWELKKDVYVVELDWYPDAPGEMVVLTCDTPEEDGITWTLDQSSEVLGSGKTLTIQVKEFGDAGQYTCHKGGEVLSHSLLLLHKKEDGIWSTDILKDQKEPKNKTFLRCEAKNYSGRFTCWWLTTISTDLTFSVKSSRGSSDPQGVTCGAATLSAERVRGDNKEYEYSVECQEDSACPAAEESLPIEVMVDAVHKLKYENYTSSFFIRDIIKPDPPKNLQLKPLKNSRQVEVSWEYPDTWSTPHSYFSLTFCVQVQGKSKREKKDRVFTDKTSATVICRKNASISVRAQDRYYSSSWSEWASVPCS

Sequence of Mouse IL-23 (mouse) (Q9EQ14 22-196, chain 1 of 2): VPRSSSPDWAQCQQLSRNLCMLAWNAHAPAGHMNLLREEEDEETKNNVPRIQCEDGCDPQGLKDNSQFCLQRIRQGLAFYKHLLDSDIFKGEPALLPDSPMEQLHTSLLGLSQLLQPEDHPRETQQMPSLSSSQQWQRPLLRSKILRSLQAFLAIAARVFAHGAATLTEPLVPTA
Sequence of Mouse IL-23 (mouse) (P43432 23-335, chain 2 of 2, further chain): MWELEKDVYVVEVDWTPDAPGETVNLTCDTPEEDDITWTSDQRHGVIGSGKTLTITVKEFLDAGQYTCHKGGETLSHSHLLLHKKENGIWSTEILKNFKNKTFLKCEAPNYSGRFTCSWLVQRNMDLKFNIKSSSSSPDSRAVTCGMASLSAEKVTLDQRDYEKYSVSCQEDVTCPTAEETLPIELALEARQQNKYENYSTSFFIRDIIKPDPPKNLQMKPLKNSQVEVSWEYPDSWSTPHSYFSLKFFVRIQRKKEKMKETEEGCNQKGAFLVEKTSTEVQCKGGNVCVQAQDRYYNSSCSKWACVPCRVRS

B1: Human IL-23 receptor cytokine-binding homology region (IL23R-CHR, amino acid residues 124-313) (domain or fragment)
chain: PPDIPDEVTCVIYEYSGNMTCTWNAGKLTYIDTKYVVHVKSLETEEEQQYLTSSYINISTDSLQGGKKYLVWVQAANALGMEESKQLQIHLDDIVIPSAAVISRAETINATVPKTIIYWDSQTTIEKVSCEMRYKATTNQTWNVKEFDTNFTYVQQSEFYLEPNIKYVFQVRCQETGKRYWQPWSSLFFH
modifications: Expressed in E. coli (non-glycosylated). The Trx-His6 tag was removed by enterokinase. A short vector/primer-derived N-terminal remnant remains and is omitted: printed as 'A', while the NcoI primer …
percentage of IL-17a+ cells in mouse CD4+ T cells (flow cytometry) under Th17 polarisation with IL23R-CHR 0, 5 and 25 ug/ml, 72 h; the value given is that at 25 ug/ml (Mouse IL-23 (mouse)): 4.18%
IC50 (Human IL-23): 90 nM
